According to article PMC3713010, “Sox2 Transcriptionally Regulates Pqbp1, an Intellectual Disability-Microcephaly Causative Gene, in Neural Stem Progenitor Cells”:

T1: Brn2 DNA-binding domain (BD-Brn2) (Mus musculus (B6), UniProt P31360 336-435)
T1 sequence: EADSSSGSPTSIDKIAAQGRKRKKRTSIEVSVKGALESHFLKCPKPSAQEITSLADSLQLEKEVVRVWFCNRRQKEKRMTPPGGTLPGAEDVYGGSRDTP

T2: Oct6 DNA-binding domain (BD-Oct6) (Mus musculus (B6), UniProt P21952 317-416)
T2 sequence: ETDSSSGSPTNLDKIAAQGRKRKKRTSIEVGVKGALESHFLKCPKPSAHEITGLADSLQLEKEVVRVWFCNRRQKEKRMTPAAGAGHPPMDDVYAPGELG

B1: 48 (dsDNA)
DNA 1: GGGGGATGAAATGGCTAAATCCTTTTTTTGTTGTTTGTTCCCCC
DNA 2: GGGGGAACAAACAACAAAAAAAGGATTTAGCCATTTCATCCCCC
B2: 42 (dsDNA)
DNA 1: GGGGGGCTTCAGCATTGTGAAATTGAATCATTGCCCCCC
DNA 2: GGGGGGCAATGATTCAATTTCACAATGCTGAAGCCCCCC
B3: 43 (dsDNA)
DNA 1: GGGGGAGGAGTGCTTTGTAAAAATAACTTCTATGTCCCCC
DNA 2: GGGGGACATAGAAGTTATTTTTACAAAGCACTCCTCCCCC
B4: 50 (dsDNA)
DNA 1: GGGGGTTTGTAAGTTTGTACCATTTGGCCTCAGCCCCCCC
DNA 2: GGGGGGGCTGAGGCCAAATGGTACAAACTTACAAACCCCC
B5: 32 (dsDNA)
DNA 1: GGGGGCGTTGCACACAAACCTTAATTTTCCAATCTATTCCCCC
DNA 2: GGGGGAATAGATTGGAAAATTAAGGTTTGTGTGCAACGCCCCC
B6: 35 (dsDNA)
DNA 1: GGGGGGTTTCTCTAATTAATAGACTTCATTGTTCAAAACTATTTTACATTTGTTCCCCC
DNA 2: GGGGGAACAAATGTAAAATAGTTTTGAACAATGAAGTCTATTAATTAGAGAAACCCCCC
B7: 33 (dsDNA)
DNA 1: GGGGGATAGTACATTTGTTGTCATTAACAAATCAGTCCCCC
DNA 2: GGGGGACTGATTTGTTAATGACAACAAATGTACTATCCCCC
B8: 41 (dsDNA)
DNA 1: GGGGGTTTGGAAAACAAAACATTAACCAAAATTTTCCCCC
DNA 2: GGGGGAAAATTTTGGTTAATGTTTTGTTTTCCAAACCCCC
B9: 49 (dsDNA)
DNA 1: GGGGGCTCTCTGATTTGTGAGTATTGACAGAGAATCCCCC
DNA 2: GGGGGATTCTCTGTCAATACTCACAAATCAGAGAGCCCCC
B10: 28 (dsDNA)
DNA 1: GGGGGAAAAAAGATTCTAATCTTTTTTGTGGTGGTGGCCCCC
DNA 2: GGGGGCCACCACCACAAAAAAGATTAGAATCTTTTTTCCCCC
B11: 30 (dsDNA)
DNA 1: GGGGGTGTCTTCTCCCTAATGATTGTTGTATGACCCCCC
DNA 2: GGGGGGTCATACAACAATCATTAGGGAGAAGACACCCCC
B12: 45 (dsDNA)
DNA 1: GGGGGAAATGTGCTTTATTTCACAAAATCAACAACCCCC
DNA 2: GGGGGTTGTTGATTTTGTGAAATAAAGCACATTTCCCCC
B13: 27 (dsDNA)
DNA 1: GGGGGCACACCTGTTTGTTTTCCACTTCACAGAGGAGGCATAGGAAACTCCCCC
DNA 2: GGGGGAGTTTCCTATGCCTCCTCTGTGAAGTGGAAAACAAACAGGTGTGCCCCC
B14: 36 (dsDNA)
DNA 1: GGGGGTGCATACATTTGTAATTCATTTAGGTGGTTTTCCCCC
DNA 2: GGGGGAAAACCACCTAAATGAATTACAAATGTATGCACCCCC
B15: 31 (dsDNA)
DNA 1: GGGGGTCCTCTCCTTTGTTTTGTCCTCACACCCCCAGCTGACCAGGTGCCCCC
DNA 2: GGGGGCACCTGGTCAGCTGGGGGTGTGAGGACAAAACAAAGGAGAGGACCCCC
B16: 44 (dsDNA)
DNA 1: GGGGGAAACCATGGGGGGTGGGCTGTAAACACAAAAAGGATTCCCCCC
DNA 2: GGGGGGAATCCTTTTTGTGTTTACAGCCCACCCCCCATGGTTTCCCCC
B17: 38 (dsDNA)
DNA 1: GGGGGAGGTTTTGATGATTATGAACAAAGCTTCTGTCCCCC
DNA 2: GGGGGACAGAAGCTTTGTTCATAATCATCAAAACCTCCCCC
B18: 47 (dsDNA)
DNA 1: GGGGGCCACCATCTGTAATGTCCTTGGCACAATAAAACCAACCCCC
DNA 2: GGGGGTTGGTTTTATTGTGCCAAGGACATTACAGATGGTGGCCCCC
B19: 39 (dsDNA)
DNA 1: GGGGGTTCAGGTTTTTGTAGGAACTTAAATTTTATGATTAGCCCCC
DNA 2: GGGGGCTAATCATAAAATTTAAGTTCCTACAAAAACCTGAACCCCC
B20: 46 (dsDNA)
DNA 1: GGGGGTTATTTCACAAAATCAACAAATCAAAAAGCCCCC
DNA 2: GGGGGCTTTTTGATTTGTTGATTTTGTGAAATAACCCCC
B21: 34 (dsDNA)
DNA 1: GGGGGTTGTTCCCTTTGACTTCTTGTGACTTTAACAAATTCTAAAGCCCCC
DNA 2: GGGGGCTTTAGAATTTGTTAAAGTCACAAGAAGTCAAAGGGAACAACCCCC
B22: 29 (dsDNA)
DNA 1: GGGGGAAAAACTTTTTGTTATTTCATTTTTATTAGTGGCCCCC
DNA 2: GGGGGCCACTAATAAAAATGAAATAACAAAAAGTTTTTCCCCC
B23: 37 (dsDNA)
DNA 1: GGGGGTTTCATGGTTTGTTAGCTATTCTCTTATCACCCCCC
DNA 2: GGGGGGTGATAAGAGAATAGCTAACAAACCATGAAACCCCC
B24: 40 (dsDNA)
DNA 1: GGGGGTTTGTCATTTTGTAGTGCTAGGAATTAAACCCATGTCCCCC
DNA 2: GGGGGACATGGGTTTAATTCCTAGCACTACAAAATGACAAACCCCC
B25: 51 (dsDNA)
DNA 1: GGGGGGTCCGGCTTTTGTTGATTTGCTTATCTATCCCCC
DNA 2: GGGGGATAGATAAGCAAATCAACAAAAGCCGGACCCCCC

Key:
Test in all cases: EMSA; 10% glycerol, 20 mM HEPES pH 7.8, 45 mM KCl, 10 mM NaCl, 1 mM EDTA, 1 mM DTT, 0.2 ug/uL BSA, 0.1% NP-40, 50 ng poly-dIdC; 20 ng each GST protein; room temperature 30 min (heterodimers 4 C); 6% PAGE 0.25x TBE
Settings in all cases: protein: recombinant; tags: GST (N-terminal, pGEX-6P-1); label: 32P-dCTP fill-in of the 5' (dG)5 overhangs of both strands (Methods; control probes are given with GGG)
[1] = target: T1, Brn2 DNA-binding domain (BD-Brn2)
Summary of the method: (§1)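 DNA binding of transcription factor DNA-binding domains to candidate cis-elements was read from band radioactivity in the expected shift region. The GST-tagged domains came from E. coli BL21 via glutathione-sepharose; probes were annealed oligonucleotides labelled with 32P-dCTP. Each assay used 20 ng protein, 40,000–50,000 cpm probe and 50 ng poly-dIdC for 30 min at room temperature, followed by 6% polyacrylamide electrophoresis in 0.25×TBE at 4°C.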

[2] = target: T2, Oct6 DNA-binding domain (BD-Oct6)
Summary of the method: as §1

[3] = target: Pax6 DNA-binding domain (BD-Pax6) (Mus musculus (B6), UniProt P63015 190-289)
Sequence of Pax6 DNA-binding domain (BD-Pax6) (P63015 190-289): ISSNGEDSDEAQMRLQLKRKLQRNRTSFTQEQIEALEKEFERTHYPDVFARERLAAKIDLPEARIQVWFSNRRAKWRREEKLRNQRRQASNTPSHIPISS
Summary of the method: as §1

Binder | binding result [1] | binding result [2] | binding result [3]
B1 | no binding | no binding | binds
B2 | no binding | no binding | binds
B3 | no binding | no binding | no binding
B4 | no binding | no binding | no binding
B5 | binds | binds | binds
B6 | binds | binds | binds
B7 | binds | binds | binds
B8 | no binding | binds | binds
B9 | no binding | no binding | no binding
B10 | no binding | no binding | no binding
B11 | binds | binds | no binding
B12 | no binding | binds | binds
B13 | no binding | no binding | no binding
B14 | binds | binds | binds
B15 | no binding | no binding | no binding
B16 | no binding | no binding | no binding
B17 | no binding | binds | no binding
B18 | no binding | binds | no binding
B19 | binds | binds | binds
B20 | no binding | binds | binds
B21 | no binding | no binding | binds
B22 | no binding | binds | no binding
B23 | no binding | no binding | no binding
B24 | binds | binds | binds
B25 | no binding | no binding | binds
